The results in this text go back to article doi:10.1101/2022.06.20.496707.

Experiment [1] addresses Serratia NucC (type III-A CRISPR-Cas-associated accessory nuclease of Serratia sp. ATCC 39006) (Serratia sp. ATCC 39006). The experiment can be described thus: crystal structure.
Experiment [2] shares this target. Kind of experiment: crystal structure. This is another data set of the same source.

Like-named read-outs stand apart in the source and are kept apart here.

As usually defined, the stoichiometry N is a count of units in the complex or per binding partner. Turning to “Serratia NucC (type III-A CRISPR-Cas-associated accessory nuclease of Serratia sp. ATCC 39006) (enzyme)”, the stoichiometry N in experiment [1] and in experiment [2] was 6 each time.
